In data set [1] the target is SARS-CoV-2 B.1.351 (S protein) (SARS-CoV-2 variant B.1.351) (UniProt P0DTC2). Nature of the data set: SPR. The note with it: SPR (BIAcore T200, […], pH not stated. For orientation: SPR reads the build-up and loss of mass on a sensor chip optically.
For data set [2], the target named is SARS-CoV-2 B.1.1.7 (S protein) (SARS-CoV-2 variant B.1.1.7) (UniProt P0DTC2). Nature of the data set: SPR. The note with it: SPR (BIAcore T200, […], pH not stated.
Data set [3] shares this target. Briefly: microfluidic affinity capture, RT-qPCR. The note with it: 5' amino C12 linker and TEG spacer 9; 3' inverted dT; SPR (BIAcore T200, […], pH not stated; […]. (In general: Quantitative PCR measures a nucleic acid by following its amplification.)

For orientation: pKd means −log10 of the Kd, conventionally taken in molar units. Low values mean a large Kd, high ones a small Kd.

pKd: −log10 of the molar value.

As to “CAGCACCGACCTTGTGCTTTGGGAGTGCTGGTCCAAGGGCGTTAATGGACA [51-nt SARS-CoV-2 aptamer (Song et al.), SPR form]”, the pKd in data set [1] and in data set [2] was 6.00 in each case.
On to “CAGCACCGACCTTGTGCTTTGGGAGTGCTGGTCCAAGGGCGTTAATGGACA [51-nt SARS-CoV-2 aptamer, chip form]”, for which the binding signal in data set [3] came out at 35 % recovery.

The values are drawn from publication PMC9519043.
